Experimental data reported in patent US20230295324A1 (published 2023).
Read-outs that look alike come from different tables or passages of the source.

T1: human OX40 on cells (CHO-K1/hu OX40) (human, UniProt P43489 29-277)
T1 sequence (looked up): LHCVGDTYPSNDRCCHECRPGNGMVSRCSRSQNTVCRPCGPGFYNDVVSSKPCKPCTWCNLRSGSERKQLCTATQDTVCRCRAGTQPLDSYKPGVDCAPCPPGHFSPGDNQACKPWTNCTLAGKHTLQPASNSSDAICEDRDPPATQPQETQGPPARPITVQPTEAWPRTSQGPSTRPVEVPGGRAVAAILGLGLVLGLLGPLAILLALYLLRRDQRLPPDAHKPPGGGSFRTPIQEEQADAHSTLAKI

T2: human OX40 protein (Acro biosystem, #OX0-H5224) (human, UniProt P43489 29-216)
T2 construct: Bought recombinant protein
T2 sequence (looked up): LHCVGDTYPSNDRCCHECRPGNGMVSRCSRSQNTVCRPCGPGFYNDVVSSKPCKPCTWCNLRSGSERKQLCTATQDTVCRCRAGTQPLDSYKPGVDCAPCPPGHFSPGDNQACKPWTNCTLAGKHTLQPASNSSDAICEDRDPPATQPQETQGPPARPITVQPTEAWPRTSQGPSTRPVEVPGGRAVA


What was measured:
[1] = biological target: T3, cynomolgus monkey OX40 protein (Novoprotein, #CB17) (cynomolgus monkey); test: ELISA, coated cyno OX40 protein
T3 construct: Bought recombinant protein; also called cyno OX40

[2] = biological target: T1, human OX40 on cells (CHO-K1/hu OX40); test: cell-based or functional assay
[3] = biological target: T1, human OX40 on cells (CHO-K1/hu OX40); test: FACS, blocking of biotin-human OX40L on CHO-K1/hu OX40 cells
[4] = biological target: T2, human OX40 protein (Acro biosystem, …); test: ELISA, coated human OX40 protein
[5] = biological target: T1, human OX40 on cells (CHO-K1/hu OX40); test: FACS, CHO-K1/hu OX40 cells
How it was run: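 Binding of anti-human OX40 HCAb antibodies measured by flow cytometry on CHO-K1 cells stably overexpressing human OX40. Cells incubated with 3-fold serially diluted antibodies 1 h at 4 °C in the dark, washed, then secondary staining 30 min at 4 °C; fluorescence read by FACS.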

[6] = biological target: T2, human OX40 protein (Acro biosystem, …); test: ELISA, coated human OX40 protein; remark: listed apart in the source
Method: This example is intended to investigate the in vitro binding activity of the anti-OX40 HCAb monoclonal antibodies prepared in Example 1 to human and cynomolgus monkey OX40 proteins. The antibody binding assay at the protein level was performed using a human OX40 protein (Acro biosystem, #OX0-H5224) and a cynomolgus monkey OX40 protein (Novoprotein, #CB17). Briefly, a 384-well plate (PerkinElmer, #6007509) was coated with 1 μg/mL human OX40 protein and a cynomolgus monkey OX40 protein dissolved in PBS at 20 μL/well, and incubated at 4° C. overnight. The next day, the 384-well plate was washed three times with PBS containing 0.05% Tween (MEDICAGO, #09-9410-100), and blocked with PBS containing 2% milk (Bio-Rad, #170-6404) at 37° C. for 1 h. […] The plate was added with a stop buffer (BBI life sciences, #E661006-0200) at 20 μL/well, and read for OD₄₅₀₋₆₅₀ values using a plate reader (Molecular Devices, model: SpectraMax Plus). The values were analyzed with Graphad 8.0 and plotted.

[7] = biological target: T1, human OX40 on cells (CHO-K1/hu OX40); test: FACS, CHO-K1/hu OX40 cells; remark: listed apart in the source
Method: This example is intended to investigate the in vitro binding activity of OX40×TAA bispecific antibodies obtained in Example 9 to human OX40. The antibody binding assay at the cellular level was performed using a CHO-K1 cell strain overexpressing human OX40 (CHO-K1/hu OX40). Briefly, CHO-K1/hu OX40 cells were digested, resuspended in an F12K complete medium, and washed with PBS, and the cell density was adjusted to 1×10⁶ cells/ml with PBS. The cells were seeded in a 96-well V-bottom plate (Corning, #3894) at 100 μL/well, followed by the addition of test antibodies diluted in a 3-fold gradient at concentrations that were 2 times the final concentrations at 100 μL/well. The cells were incubated at 4° C. for 1 h away from light. Thereafter, the cells in each well were rinsed twice with 100 μL of pre-cooled PBS, and centrifuged at 500 g at 4° C. for 5 min, and then the supernatant was discarded. […] The plate was incubated away from light at 4° C. for 30 min. The cells in each well were rinsed twice with 100 μL of pre-cooled PBS, and centrifuged at 500 g at 4° C. for 5 min, and then the supernatant was discarded. Finally, the cells in each well were resuspended in 200 μL of pre-cooled PBS, and the fluorescence signal values were read using NovoCyte flow cytometer (ACEA Biosciences).

[8] = biological target: T4, human PD-L1 on MDA-MB-231 cells (human, UniProt Q9NZQ7 19-290); test: FACS, MDA-MB-231 cells (human PD-L1)
T4 construct: whole, on cells
T4 sequence (Q9NZQ7 19-290): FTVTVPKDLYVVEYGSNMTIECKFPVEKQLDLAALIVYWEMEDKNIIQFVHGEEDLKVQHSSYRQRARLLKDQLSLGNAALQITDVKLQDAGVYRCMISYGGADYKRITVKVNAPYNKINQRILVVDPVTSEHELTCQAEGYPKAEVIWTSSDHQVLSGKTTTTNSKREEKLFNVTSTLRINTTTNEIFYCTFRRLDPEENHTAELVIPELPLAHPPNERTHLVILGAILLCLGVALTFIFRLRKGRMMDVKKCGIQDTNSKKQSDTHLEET
Method: This example is intended to investigate the in vitro binding activity of OX40×TAA bispecific antibodies obtained in Example 9 to tumor-associated antigens (TAAs). […] Briefly, those cells were digested, resuspended in a complete medium, and washed with PBS, and the cell density was adjusted to 1×10⁶ cells/ml with PBS. The cells were seeded in a 96-well V-bottom plate (Corning, #3894) at 100 μL/well, and centrifuged, and then the supernatant was discarded. Then, the test antibodies diluted in a 3-fold gradient were added at 100 μL/well. The cells were incubated at 4° C. for 1 h away from light. Thereafter, the cells in each well were rinsed twice with 100 μL of pre-cooled PBS, and centrifuged at 500 g at 4° C. for 5 min, and then the supernatant was discarded. […] The plate was incubated away from light at 4° C. for 30 min. The cells in each well were rinsed twice with 100 μL of pre-cooled PBS, and centrifuged at 500 g at 4° C. for 5 min, and then the supernatant was discarded. Finally, the cells in each well were resuspended in 200 μL of pre-cooled PBS, and the fluorescence signal values were read using NovoCyte flow cytometer (ACEA Biosciences).

Binder	EC50 [1]	Maximum OD [1]	EC50, HEK293/OX40/NF-kb luciferase reporter [2]	Maximum fluorescence signal value, HEK293/OX40/NF-kb luciferase reporter [2]	IC50 [3]	Maximum inhibition rate (%) [3]	EC50 [4]	Maximum OD [4]	EC50 [5]	Maximum MFI [5]	EC50 [6]	EC50 [7]	Maximum MFI [7]	EC50 [8]
PR002055 (antibody, human IgG1, V domains shown, no light chain; also called anti-OX40 HCAb antibody) VH: EVQLLESGGGLVQPGGSLRLSCAASGLTFSSYAMSWVRQAPGKGLEWISAISGGGGSTYYADSVRGRFTISRDNSKNTLYLQMNSLRAEDTAVYYCANGMTGSTDVDYWGQGTLVTVSS	0.0452 nM	1.74 OD	4.66 nM	141000 luminescence	59.9 nM	19%	0.0268 nM	1.41 OD	3.18 nM	2240 MFI	< 0.05 nM	–	–	–
PR003789 (bispecific antibody, human IgG1, kappa, L234A L235A, IgG-VH tetravalent symmetric structure: PR000265 IgG (anti-PD-L1) with the VH of PR002067 at the C-terminus via linker H1_15; human IgG1 Fc (L234A, L235A, P329G); also called PD-L1xOX40 bispecific antibody) light: DIQMTQSPSTLSASVGDRVTVTCRASQSIYIWLAWYQQKPGKAPNLLIYKASSLETGVPSRFSGSGSGTEFTLTISSLQPDDFATYYCQQYYGSSRTFGQGTKVEIKRTVAAPSVFIFPPSDEQLKSGTASVVCLLNNFYPREAKVQWKVDNALQSGNSQESVTEQDSKDSTYSLSSTLTLSKADYEKHKVYACEVTHQGLSSPVTKSFNRGEC heavy: EVQLVESGGGLVQPGGSLRLSCAASGFTFSSYWMSWVRQAPGKGLEWVANIKQEGSEKYYVDSVKGRFTISRDNAKNSLYLQMNSLRAEDTAVYYCARDRAVAGAFDIWGQGTMVTVSSASTKGPSVFPLAPSSKSTSGGTAALGCLVKDYFPEPVTVSWNSGALTSGVHTFPAVLQSSGLYSLSSVVTVPSSSLGTQTYICNVNHKPSNTKVDKKVEPKSCDKTHTCPPCPAPEAAGGPSVFLFPPKPKDTLMISRTPEVTCVVVDVSHEDPEVKFNWYVDGVEVHNAKTKPREEQYNSTYRVVSVLTVLHQDWLNGKEYKCKVSNKALGAPIEKTISKAKGQPREPQVYTLPPSREEMTKNQVSLTCLVKGFYPSDIAVEWESNGQPENNYKTTPPVLDSDGSFFLYSKLTVDKSRWQQGNVFSCSVMHEALHNHYTQKSLSLSPGAEPKSSDKTHTPPPPPEVQLLESGGGLVQPGGSLRLSCAASGFTFSSYAMSWVRQAPGKGLEWVSAISGRGGSTFYADSVRGRFTISRDNSKNTLYLQMNSLRAEDTAMYYCVDGTTGTTDVDYWGQGTLVTVSS	–	–	–	–	–	–	–	–	–	–	–	3.98 nM	287000 MFI	1.04 nM
